The values that follow come from article PMC11139201, “RsaL is a self‐regulatory switch that controls alternative biosynthesis of two AHL‐type quorum sensing signals in Pseudomonas aeruginosa PA1201”.

Changes are numbered by the printed parent chain.

The series concerns the target RsaL (Pseudomonas aeruginosa PA1201, UniProt Q9X7H4 1-80). Nature of the series: EMSA; EMSA: 10 mM Tris-HCl pH 8.0, 1 mM EDTA, 5 mM MgCl2, 50 mM KCl, 2.5% glycerol, 30 ug/ml poly(dI-dC), 0.05% NP-40, room temperature 20 min; footprint: 100 ng probe in 40 ul, 30 min room temperature, DNase I 1 min 25 C. The note with it: protein: recombinant, tags: His (pET28a), chain copies: 2. (In general: In EMSA bound probe runs differently from free probe, usually more slowly.)

B1: PRO-II (dsDNA)
DNA 1: AAATGAGATAGATTTCGGTGAACCCGGACCCTTGCTAGGCTCGAAGAAACGTCCGAAAAGATCAGAGCAATGGCTTCACACGAG
DNA 2: CTCGTGTGAAGCCATTGCTCTGATCTTTTCGGACGTTTCTTCGAGCCTAGCAAGGGTCCGGGTTCACCGAAATCTATCTCATTT
For B1, the binding result (label: Cy5) is given as “binds”.

B2: PRO-II-p (dsDNA)
DNA 1: B1 DNA 1 with A12G, T13C, T14C, T15C
DNA 2: B1 DNA 2 with A70G, A71G, A72G, T73C
B2: the binding result is listed as “no binding”.
